Results: the supplement of paper PMC9876800

Tested on: peptide library, one residue held at a place counted from the S/T acceptor
Test: relative phosphorylation of the sub-library (ratio to the mean residue at this position); human; higher = residue favoured
Outline: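 Relative sub-library phosphorylation is a ratio to the mean residue at the same position. Purified recombinant kinases were incubated under kinase-specific conditions with biotinylated degenerate peptide sub-libraries, each fixing one residue at one position around a central Ser/Thr, using 50 μM peptide and 50 μM ATP spiked with γ-32P-ATP for 90 min. Spots captured on streptavidin membranes were phosphorimaged and quantified by densitometry.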

AURKA, construct: Full length, sequence (O14965 whole entry, looked up): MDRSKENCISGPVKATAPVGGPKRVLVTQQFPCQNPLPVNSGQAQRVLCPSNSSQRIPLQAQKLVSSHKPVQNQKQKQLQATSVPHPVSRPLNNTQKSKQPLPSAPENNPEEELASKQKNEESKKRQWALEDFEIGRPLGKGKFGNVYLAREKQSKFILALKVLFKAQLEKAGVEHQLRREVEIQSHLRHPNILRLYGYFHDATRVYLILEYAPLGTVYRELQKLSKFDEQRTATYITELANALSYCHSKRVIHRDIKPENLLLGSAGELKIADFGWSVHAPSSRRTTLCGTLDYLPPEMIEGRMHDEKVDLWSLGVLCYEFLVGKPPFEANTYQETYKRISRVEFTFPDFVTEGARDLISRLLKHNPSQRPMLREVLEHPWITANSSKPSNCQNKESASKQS
TP53RK, construct: Full length, sequence (Q96S44 whole entry, looked up): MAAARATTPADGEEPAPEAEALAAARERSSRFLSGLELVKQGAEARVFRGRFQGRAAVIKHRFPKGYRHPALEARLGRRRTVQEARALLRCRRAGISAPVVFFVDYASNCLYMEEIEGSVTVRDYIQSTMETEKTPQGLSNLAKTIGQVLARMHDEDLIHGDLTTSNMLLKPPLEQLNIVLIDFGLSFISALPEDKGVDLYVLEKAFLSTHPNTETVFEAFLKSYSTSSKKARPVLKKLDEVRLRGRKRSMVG

TP53RK, construct: Full length (from UniProt Q96S44)
relative phosphorylation
Conditions | at +1 | at +2 | at +3 | at +4 | at -1 | at -2 | at -3 | at -4 | at -5
A fixed | 0.941 | 0.938 | 1.06 | 0.947 | 1.23 | 1.24 | 1.01 | 1.17 | 1.05
D fixed | 1.03 | 1.01 | 0.952 | 1.05 | 0.972 | 0.929 | 1.02 | 0.897 | 0.956
E fixed | 1.09 | 1.08 | 0.988 | 1.16 | 1 | 1.04 | 1.1 | 0.973 | 0.922
F fixed | 1.12 | 1.09 | 1.04 | 0.983 | 0.998 | 0.94 | 1.03 | 0.971 | 0.953
G fixed | 0.918 | 0.956 | 1.08 | 0.958 | 1.3 | 1.49 | 1.08 | 1.12 | 0.976
H fixed | 1.07 | 1.33 | 1.07 | 1.11 | 0.847 | 0.877 | 0.987 | 1.11 | 1.17
I fixed | 0.913 | 0.816 | 0.945 | 0.896 | 0.976 | 1.01 | 0.878 | 0.829 | 0.893
K fixed | 1.05 | 1.01 | 0.99 | 1.09 | 0.864 | 0.848 | 0.985 | 1.07 | 1.12
L fixed | 1.01 | 0.85 | 0.926 | 0.862 | 1.03 | 0.981 | 0.815 | 0.792 | 0.86
M fixed | 0.979 | 0.926 | 0.959 | 0.879 | 1.04 | 1.02 | 1.03 | 0.949 | 0.946
N fixed | 1.01 | 0.998 | 0.947 | 0.955 | 0.933 | 0.927 | 1.02 | 0.966 | 0.961
P fixed | 0.85 | 0.925 | 1.02 | 0.967 | 1.24 | 1.2 | 0.955 | 1.16 | 0.989
Q fixed | 1.04 | 0.975 | 0.953 | 1.08 | 0.897 | 0.906 | 1.06 | 1.04 | 0.903
R fixed | 0.973 | 0.971 | 0.964 | 1.01 | 0.857 | 0.853 | 1 | 1.03 | 1.12
V fixed | 0.917 | 0.885 | 0.949 | 0.838 | 0.964 | 0.989 | 0.894 | 0.931 | 0.962
W fixed | 1.05 | 1.13 | 1.04 | 1.15 | 0.907 | 0.867 | 1.14 | 1.07 | 1.16
Y fixed | 1.05 | 1.11 | 1.12 | 1.07 | 0.939 | 0.892 | 0.996 | 0.922 | 1.05
pThr fixed | 0.977 | 0.952 | 0.886 | 1.03 | 1.06 | 1.08 | 0.987 | 0.973 | 0.943
pTyr fixed | 1.05 | 1.11 | 1.02 | 1.01 | 3.48 | 1.31 | 1.08 | 0.942 | 0.944

AURKA, construct: Full length (from UniProt O14965)
relative phosphorylation
Conditions | at +1 | at +2 | at +3 | at +4 | at -1 | at -2 | at -3 | at -4 | at -5
A fixed | 0.474 | 1 | 0.906 | 0.863 | 0.683 | 0.209 | 0.665 | 1.08 | 1.08
D fixed | 1.14 | 0.993 | 0.822 | 0.906 | 1.39 | 0.274 | 0.606 | 1.4 | 1
E fixed | 0.796 | 1.03 | 0.851 | 1.1 | 1.56 | 0.257 | 0.85 | 0.963 | 1.06
F fixed | 1.83 | 0.958 | 1.25 | 0.755 | 0.884 | 0.203 | 0.574 | 0.725 | 0.83
G fixed | 0.647 | 1.76 | 1.48 | 1.05 | 0.689 | 0.32 | 1.38 | 1.23 | 1.18
H fixed | 0.665 | 1.3 | 1.32 | 1.18 | 1.09 | 0.341 | 0.964 | 0.952 | 1.08
I fixed | 1.66 | 1.03 | 0.865 | 0.931 | 0.637 | 0.162 | 0.46 | 0.706 | 0.874
K fixed | 0.241 | 0.324 | 0.844 | 1.19 | 0.707 | 1.32 | 1.58 | 1.35 | 1.38
L fixed | 2.05 | 0.784 | 0.812 | 0.649 | 1.32 | 0.182 | 0.367 | 0.766 | 0.753
M fixed | 1.76 | 0.832 | 0.752 | 1 | 1.38 | 0.176 | 0.541 | 0.818 | 0.722
N fixed | 0.852 | 0.649 | 0.798 | 1.26 | 1.15 | 0.345 | 0.857 | 1.04 | 1.2
P fixed | 0.211 | 0.78 | 1.3 | 0.969 | 0.748 | 0.289 | 0.883 | 0.905 | 0.738
Q fixed | 0.735 | 0.629 | 0.843 | 1.06 | 1.09 | 0.608 | 0.667 | 0.908 | 0.802
R fixed | 0.425 | 0.509 | 0.821 | 1.24 | 1.16 | 11.7 | 4.83 | 1.71 | 1.67
V fixed | 1.11 | 0.766 | 0.775 | 0.682 | 0.601 | 0.163 | 0.425 | 0.699 | 0.759
W fixed | 1.26 | 0.881 | 1.2 | 1.22 | 0.587 | 0.232 | 0.779 | 0.966 | 0.906
Y fixed | 1.14 | 2.77 | 1.36 | 0.948 | 1.33 | 0.185 | 0.574 | 0.782 | 0.964
pThr fixed | 1.61 | 1.26 | 1.07 | 1.53 | 0.588 | 0.374 | 0.879 | 0.972 | 1.04
pTyr fixed | 0.836 | 1.53 | 1.74 | 1.43 | 2.24 | 0.356 | 1 | 0.962 | 1.3
